This is an account of results in PMC5791736, “CCPG1 Is a Non-canonical Autophagy Cargo Receptor Essential for ER-Phagy and Pancreatic ER Proteostasis” (Developmental Cell, 2018).

The target of the test is T1, GST-CCPG1 NTD (bacterial) (1-230) (human, UniProt Q9ULG6 1-230).
T1 construct: CCPG1, human, N-terminal amino acids 1-230 (NTD); source: E. coli Rosetta II (DE3), pre-purified on glutathione Sepharose beads
T1 sequence (looked up): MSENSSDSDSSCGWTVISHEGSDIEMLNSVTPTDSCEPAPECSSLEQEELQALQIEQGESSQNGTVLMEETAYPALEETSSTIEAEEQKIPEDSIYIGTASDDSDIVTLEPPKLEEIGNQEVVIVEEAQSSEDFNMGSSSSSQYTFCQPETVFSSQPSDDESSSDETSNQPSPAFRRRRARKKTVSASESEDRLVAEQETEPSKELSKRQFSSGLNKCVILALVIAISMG
In words: pull-down; GST-CCPG1 NTD pre-purified on glutathione Sepharose beads, incubated with purified recombinant protein (His-GABARAP or His-FIP200) in IGEPAL IP buffer, 4°C; immunoblot. To be noted: both partners purified.

B1: His-GABARAP (natural protein, human, UniProt O95166 1-117, looked up)
chain: MKFVYKEEHPFEKRRSEGEKIRKKYPDRVPVIVEKAPKARIGDLDKKKYLVPSDLTVGQFYFLIRKRIHLRAEDALFFFVNNVIPPTSATMGQLYQEHHEEDFFLYIAYSDESVYGL
notes: GABARAP, human ATG8 ortholog; also called purified, recombinant His-GABARAP; source: recombinant, purified
B1: the binding result is on record as “binds”.
